Test results: patent US20130259876A1 (Regeneron, published 2013)

B1: H4H2530S (antibody, V domains shown)
VH: EVQLVESGPGLVKPSQTLSLTCTVSGGSINSGGSYWSWIRQHPGKGLEWIGYIYSSGNTYYKPSLKSRVTISLDTSKNQFSLKMSSVTAADTAIYYCARDPRGITGTHYFDYWGQGTTVTVSS
VL: EIVLTQSPGTLSLSPGERATLSCRTSQSISNKYLAWYQQKPGQAPRLLIYGASTRATGIPDRFSGSGSGTDFTLTISRLEPEDFAVYYCQQFGTSLFTFGPGTKVEIK
B2: H4H2524P (antibody, V domains shown)
VH: QVQLQESGPGLVKPSQTLSLTCTVSGGSISSDGYYWSWIRQHPGKGLEWIGYIYYSGNTYYNPSLKSRVTISVDTSKNHFSLKLSSVTAADTAVYYCTRDPRGITGTHYFDYWGQGTLVTVSS
VL: EIVLTQSPGTLSLSPGERATLSCRTSQSVSSSYLAWYQQKPGQAPRLLIYGASSRATGIPDRFSGSGSGTDFTLTISRLEPEDFAVYYCQQFGTSLFTFGPGTKVDIK
B3: H4H2497N (antibody, V domains shown)
VH: QVQLVESGGGVVQPGRSLRLSCAASGFTFSTYGMDWVRQAPGKGLEWVAVISYDGRNKNYVDSVKGRFTISRDNSKNTLYLQMNSLRAEDSAVYFCAKEGGLGTWYFDLWGRGTLVTVSS
VL: not shown
B4: H4H2477N2 (antibody, V domains shown)
VH: QVQLQQWGAGLLKPSETLSLTCAVYGGSFSDYYWSWIRQPPGKGLEWIGEINHRGNTNYNPSLKSRVTISVDTSKNQFSLKLRSVTAADMAVYYCARIQLWLRGYDYYGMDVWGQGTTVTVSS
VL: DIQMTQSPSSLSASVGDRVTITCRASQGIRNDLGWYQQKPGKAPKRLIYAASSLQGGVPSRFSGSGSGTEFSLTISSLQPEDFASYYCLQHNTYPWTFGQGTKVEIK
B5: H4H2718N (antibody, V domains shown)
VH: EVQLVESGGGLVQPGRSLRLSCAASGFTFDEYAMHWVRQVPGKGLEWVSGISRNSGTIGYVDSVLGRFTISRDNAKNSLYLQMNSLRPEDTALYYCAKDKGWLLGMDVWGQGTTVTVSS
VL: DIQMTQSPSSLSASVGDRVTITCRASQAIRNDLGWYQQKPGKAPKRLIYAASSLQSGVPSRFSGSGSGTEFALTISSLQPEDFATYYCLQYNSYLYTFGQGTKLEIK
B6: H4H2480N (antibody, V domains shown)
VH: QVQLQQWGAGLLKPSETLSLTCAVYGGSFSGYYWSWIRQTPGKGLEWIGEISHSGNNNYNPSLKSRVTMSKDTSKNQFSLKLSSVTAADTAVYYCARIQLWLRGNDYYGMDVWGQGITVTVSS
VL: DIQMTQSPSSLSASVGDRVTITCRASQGIRNDLGWYQQKPGKAPKRLIYAASSLQGGVPSRFSGSGSGTEFTLTISSLQPEDFATYYCLQHNSYPWTFGQGTKVEIK
B7: H4H2564S (antibody, V domains shown)
VH: EVQLVESGGGLVQPGGSLRLSCAASGITFSSFVMNWVRQAPGKGLEWVSVISGSGGSTYYADSVKGRFTISRDNSKNTLYLQMNSLRAEDTAVYYCAKGGLRWFPFDYWGQGTLVTVSS
VL: not shown
B8: H4H2490N2 (antibody, V domains shown)
VH: QVQLVQSGADVKWPGASVKVSCRASGYTFTGYYMHWVRQAPGQGLEWMGWINPNNGGTNYAQKFQGRVTMTRDTSITTVYMELSSLISDDTAVYYCARGEDLELRNYYYYGMDVWGQGTSVTVSS
VL: DIQMTQSPSSLSASVGDRVTITCRASQSISSYLNWYQQKPGKAPKLLIYAASNLQSGVPSRFSGSGFGTDFTLTISSLQSEDFATYYCQQTYSTRTFGRGTKVEIK

What was measured:
[1] = molecular target: T1, scHLA-B27-mmH (engineered HLA-B*27 ectodomain in-line fusion protein) (human (HLA-B*2705, beta-2 …)); assay: SPR (Biacore), mAb captured, 37 C, HBST pH 7.4
T1 construct: also called soluble HLA-B*27 fusion protein

[2] = molecular target: T1, scHLA-B27-mmH (engineered HLA-B*27 …); assay: SPR (Biacore), mAb captured, 25 C, PBS pH 7.2
[3] = molecular target: T1, scHLA-B27-mmH (engineered HLA-B*27 …); assay: SPR (Biacore), mAb captured, 25 C, PBS pH 5.75
[4] = molecular target: T1, scHLA-B27-mmH (engineered HLA-B*27 …); assay: SPR (Biacore), mAb captured, 25 C, HBST pH 7.4
[5] = molecular target: T1, scHLA-B27-mmH (engineered HLA-B*27 …); assay: SPR (Biacore), 25 C, PBS pH 7.2
[6] = molecular target: T1, scHLA-B27-mmH (engineered HLA-B*27 …); assay: SPR (Biacore), 25 C, PBS pH 5.75
[7] = molecular target: T1, scHLA-B27-mmH (engineered HLA-B*27 …); assay: SPR (Biacore), mAb captured, 25 C, PBS pH 7.2; 25 C, PBS pH 7.2

| Binder | Kd [1] [nM] | t1/2 [1] [min] | Kd [2] [nM] | t1/2 [2] [min] | Kd [3] [nM] | t1/2 [3] [min] | Kd [4] [nM] | t1/2 [4] [min] | Kd [5] [nM] | Kd [6] [nM] | t1/2 [7] [min] |
| --- | --- | --- | --- | --- | --- | --- | --- | --- | --- | --- | --- |
| B1 | 1.88 | 6 | 0.668 | 43 | 10.7 | 15 | 1.22 | 16 | 0.668 | 10.7 | – |
| B2 | 26.8 | 2 | 69 | 1 | 204 | 2 | 23.9 | 2 | 69 | 204 | – |
| B3 | 337 | 3 | 22.3 | 23 | 33.9 | 12 | 33.6 | 12 | 22.3 | 33.9 | – |
| B4 | 47 | 3 | 44 | 20 | 160 | 5 | 16.9 | 11 | 44 | 160 | – |
| B5 | 29 | 3 | 97.3 | 4 | 97.5 | 4 | 44.9 | 4 | 97.3 | 97.5 | – |
| B6 | – | – | – | – | 129 | 5 | 24 | 9 | – | 129 | 18 |
| B7 | 7.17 | 9 | 8.84 | 20 | 74.8 | 3 | 3.57 | 19 | 8.84 | 74.8 | – |
| B8 | 360 | 1 | 239 | 2 | 237 | 2 | 259 | 1 | 239 | 237 | – |
